{
  "source": "patent US11155602B2",
  "about": "“Polypeptides targeting HIV fusion” (priority 2015, dated 2021)",
  "molecules": {"B1": {"name": "139 (protein)", "chain": "MGVSDVPRDLEVVAATPTSLLISWEDPEAAVRYYRITYGETGGNSPVQEFTVPINDLHSYLSGLKPGVDYTITVYAVTEATVMYVLDEPISINYRTEIDKPSQHHHHHH", "modifications": "Adnectin"}, "B2": {"name": "116 (protein)", "chain": "MASTSGVSDVPRDLEVVAATPTSLLISWDAPAVTVEQYYIAYYVEGEPSSYQYFRVPGSKSTATISGLKPGVLYHIYVNAVTGSGLRPEFSLPIRIKYRTEGSGSHHHHHH", "modifications": "Adnectin"}, "B3": {"name": "369 (protein)", "chain": "MGHHHHHHGGSVSDVPRDLEVVAATPTSLLISWEYKVHPYRYYRITYGETGGNSPVQEFTVPSVLSTATISGLKPGVDYTITVYAVTYGDPSAPISINYRTEID", "modifications": "Adnectin"}, "B4": {"name": "371 (protein)", "chain": "B3 chain with D90I, P91D, A93T", "modifications": "Adnectin"}, "B5": {"name": "149 (protein)", "chain": "B3 chain with D90K, P91D", "modifications": "Adnectin"}, "B6": {"name": "370 (protein)", "chain": "B3 chain with P91D, A93K", "modifications": "Adnectin"}, "B7": {"name": "117 (protein)", "chain": "B3 chain with P91D", "modifications": "Adnectin"}, "B8": {"name": "141 (protein)", "chain": "MGVSDVPRDLEVVAATPTSLLISWQYKVHPYRYYRITYGETGGNSPVQEFTVPSVLSTATISGLKPGVDYTITVYAVTYGIQSPPISINYRTEIDKPSQHHHHHH", "modifications": "Adnectin"}, "B9": {"name": "144 (protein)", "chain": "B8 chain with I81V, Q82E, P84S", "modifications": "Adnectin"}, "B10": {"name": "146 (protein)", "chain": "B8 chain with Q25E, Q82D", "modifications": "Adnectin"}, "B11": {"name": "142 (protein)", "chain": "B8 chain with Q25R, K27R, Y79D, I81V, P84S", "modifications": "Adnectin"}, "B12": {"name": "147 (protein)", "chain": "B8 chain with Q25E, I81V, Q82D, P84D", "modifications": "Adnectin"}, "B13": {"name": "150 (protein)", "chain": "B8 chain with Q25E, K27N, H29N, I81V, Q82E, P84S", "modifications": "Adnectin"}, "B14": {"name": "145 (protein)", "chain": "B8 chain with Q25E, I81V, Q82N, P84L", "modifications": "Adnectin"}, "B15": {"name": "143 (protein)", "chain": "B8 chain with Q25E, K27N, H29N, Q82E, P84S", "modifications": "Adnectin"}, "B16": {"name": "148 (protein)", "chain": "B8 chain with Q25E, K27N, H29N, Q82D", "modifications": "Adnectin"}, "B17": {"name": "140 (protein)", "chain": "MGVSDVPRDLEVVAATPTSLLISWDLLEDMSRYYRITYGETGGNSPVQEFTVPTDAYTATISGLKPGVDYTITVYAVTQDSHVIELSYPISINYRTEIDKPSQHHHHHH", "modifications": "Adnectin"}},
  "note": "Changes are numbered by the printed parent chain.",
  "data": [
    {"tested_on": "NL-Rluc virus", "test": "Combinectin potency assay: antiviral EC50, NL-Rluc virus in MT-2 cells, luciferase readout", "format": "cell-based, HIV-1", "conditions": "Anti-N17 Adnectin, Table 3", "method": "MT-2 cells, HEK 293T cells and the proviral DNA clone of […] were obtained from the NIH AIDS Research and Reference Reagent Program. MT-2 cells were propagated in RPMI 1640 medium supplemented with 10% heat-inactivated fetal bovine serum (FBS), 10 mM HEPES buffer pH 7.55, and 2 mM L-glutamine. HEK 293T cells were propagated in DMEM media supplemented with 10% heat-inactivated FBS, 10 mM HEPES buffer pH 7.55 and 2 mM L-glutamine. Recombinant NL-Rluc virus, in which a section of the nef gene from the proviral clone of NL4-3 was replaced with the Renilla luciferase gene, was constructed at Bristol-Myers Squibb. The replication-competent virus was harvested 3 days after transfection of HEK 293T cells with the modified pNL-Rluc proviral clone. Transfections were performed using Lipofectamine Plus (Invitrogen, Carlsbad, Calif.), according to manufacturer's instruction. Virus was titered in MT-2 cells using luciferase enzyme activity as a biomarker. The NL-Rluc virus used to infect MT-2 cells a multiplicity of 0.01 for 1 hour before adding to the peptides in 96-well plates. Peptides were serially diluted three-fold and 11 concentrations were plated in triplicate. After 4-5 days of incubation, cells were processed and quantitated for virus growth by the amount of expressed luciferase. Luciferase was quantitated using the Dual Luciferase kit from Promega (Madison, Wis.), with modifications to the manufacturer's protocol. The diluted Passive Lysis solution was pre-mixed with the re-suspended Luciferase Assay Reagent and then re-suspended in STOP & GLO® Substrate (2:1:1 ratio). A total of […] of the mixture was added to each aspirated well on assay plates and luciferase activity was measured immediately on a Wallac TriLux (Perkin-Elmer, Waltham, Mass.). The 50% effective concentration (EC50) was calculated by comparing the amount of luciferase produced in the presence of inhibitory peptide compared to wells where no peptide was added.", "units": {"EC50": "nM"}, "values": [
      {"molecule": "B1", "EC50": 130},
      {"molecule": "B2", "EC50": 50},
      {"molecule": "B3", "EC50": 155},
      {"molecule": "B4", "EC50": 114},
      {"molecule": "B5", "EC50": 3},
      {"molecule": "B6", "EC50": 335},
      {"molecule": "B7", "EC50": 42},
      {"molecule": "B8", "EC50": 3},
      {"molecule": "B9", "EC50": 20},
      {"molecule": "B10", "EC50": 11},
      {"molecule": "B11", "EC50": 55},
      {"molecule": "B12", "EC50": 28},
      {"molecule": "B13", "EC50": 18},
      {"molecule": "B14", "EC50": 11},
      {"molecule": "B15", "EC50": 20},
      {"molecule": "B16", "EC50": 14},
      {"molecule": "B17", "EC50": 950}
    ]}
  ]
}
